Assay results from patent publication US20160002338A1 (Hoffmann-La Roche, published 2016).

How the values were obtained:
[1] = molecular target: T1, HER3 ECD-HRG complex (human, UniProt P21860 20-643); assay: SPR Biacore T100, antibody captured, 25 C
T1 construct: also called Heregulin/Her-3 ECD
Description: (§1) A CM5 series sensor was mounted into the system and was normalized in HBS-ET buffer (10 mM HEPES pH 7.4, 150 mM NaCl, 3 mM EDTA, 0.005% w/v Tween 20) according to the manufacturer's instructions. The sample buffer was the system buffer supplemented with 1 mg/ml CMD (Carboxymethyldextran, Sigma #86524). The system operated at 25° C. 6500 RU RAM-Fcγ (relative units of Fcγ-fragment RamIgG, GE Healthcare) were immobilized according to the manufacturer's instructions using EDC/NHS chemistry on all four flow cells. The sensor was deactivated using 1M ethanolamine.
(§2) Analytes in solution were injected at different concentration steps of 0 nM, 1.1 nM, 3.7 nM, 11.1 nM, 33.1 nM and 90 nM for 3.5 min. The dissociation was monitored for 15 min. Where possible, kinetic signatures were evaluated according to a Langmuir fit.

[2] = molecular target: T2, HER4 ECD-HRG complex (human, UniProt Q15303 26-651); assay: SPR Biacore T100, antibody captured, 25 C
T2 construct: HER4 ECD preincubated with a 5-fold molar excess of Heregulin; also called HER-4-ECD-RG
T2 sequence 1: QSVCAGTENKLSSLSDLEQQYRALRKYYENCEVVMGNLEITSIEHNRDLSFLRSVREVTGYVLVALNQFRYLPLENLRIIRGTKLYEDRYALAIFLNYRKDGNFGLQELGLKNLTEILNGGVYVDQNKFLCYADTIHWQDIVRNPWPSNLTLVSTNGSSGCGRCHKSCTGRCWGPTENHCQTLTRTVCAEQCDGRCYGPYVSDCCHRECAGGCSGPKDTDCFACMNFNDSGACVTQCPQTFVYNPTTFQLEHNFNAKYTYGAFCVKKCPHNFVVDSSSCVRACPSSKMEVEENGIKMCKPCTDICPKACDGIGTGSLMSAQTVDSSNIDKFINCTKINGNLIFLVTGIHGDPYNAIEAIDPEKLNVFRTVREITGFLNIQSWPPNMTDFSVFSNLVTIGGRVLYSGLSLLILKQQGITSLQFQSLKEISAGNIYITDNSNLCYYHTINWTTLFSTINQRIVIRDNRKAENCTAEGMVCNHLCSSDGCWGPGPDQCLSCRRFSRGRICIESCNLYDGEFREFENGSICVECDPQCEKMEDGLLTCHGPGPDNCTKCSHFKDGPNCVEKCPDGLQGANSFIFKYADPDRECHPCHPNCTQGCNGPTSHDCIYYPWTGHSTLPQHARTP
T2 sequence 2: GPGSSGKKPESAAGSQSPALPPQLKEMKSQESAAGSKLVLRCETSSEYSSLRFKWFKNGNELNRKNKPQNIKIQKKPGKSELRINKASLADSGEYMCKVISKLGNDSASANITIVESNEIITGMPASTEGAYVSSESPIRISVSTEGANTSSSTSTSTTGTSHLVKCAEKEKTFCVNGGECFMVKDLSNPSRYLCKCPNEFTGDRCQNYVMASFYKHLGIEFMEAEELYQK
Description: as §1, §2

[3] = molecular target: T3, human recombinant HER4 ECD (human, UniProt Q15303 26-651); assay: SPR Biacore T100, antibody captured, 25 C
T3 construct: also called full length Her4 ECD
T3 sequence: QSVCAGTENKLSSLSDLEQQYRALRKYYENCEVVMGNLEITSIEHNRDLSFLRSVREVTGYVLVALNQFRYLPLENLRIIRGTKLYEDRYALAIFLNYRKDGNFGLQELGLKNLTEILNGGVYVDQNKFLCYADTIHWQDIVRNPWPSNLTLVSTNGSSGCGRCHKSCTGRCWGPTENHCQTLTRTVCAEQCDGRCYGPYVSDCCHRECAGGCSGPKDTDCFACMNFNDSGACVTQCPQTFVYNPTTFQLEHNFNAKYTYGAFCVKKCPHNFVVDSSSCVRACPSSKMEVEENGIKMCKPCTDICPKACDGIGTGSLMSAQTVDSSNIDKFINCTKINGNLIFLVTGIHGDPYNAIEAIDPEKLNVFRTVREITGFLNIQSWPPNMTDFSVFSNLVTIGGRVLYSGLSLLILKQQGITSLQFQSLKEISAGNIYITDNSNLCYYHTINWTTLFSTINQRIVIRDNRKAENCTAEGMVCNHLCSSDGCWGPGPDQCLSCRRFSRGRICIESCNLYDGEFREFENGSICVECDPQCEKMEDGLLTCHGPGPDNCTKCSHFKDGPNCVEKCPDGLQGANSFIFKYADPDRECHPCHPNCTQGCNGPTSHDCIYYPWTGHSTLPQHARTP
Description: as §1, §2

[4] = molecular target: T4, human recombinant HER3 ECD (human, UniProt P21860 20-643); assay: SPR Biacore T100, antibody captured, 25 C
T4 construct: 68 kDa; also called human-Her3-ECD; full length Her3 ECD
T4 sequence (P21860 20-643): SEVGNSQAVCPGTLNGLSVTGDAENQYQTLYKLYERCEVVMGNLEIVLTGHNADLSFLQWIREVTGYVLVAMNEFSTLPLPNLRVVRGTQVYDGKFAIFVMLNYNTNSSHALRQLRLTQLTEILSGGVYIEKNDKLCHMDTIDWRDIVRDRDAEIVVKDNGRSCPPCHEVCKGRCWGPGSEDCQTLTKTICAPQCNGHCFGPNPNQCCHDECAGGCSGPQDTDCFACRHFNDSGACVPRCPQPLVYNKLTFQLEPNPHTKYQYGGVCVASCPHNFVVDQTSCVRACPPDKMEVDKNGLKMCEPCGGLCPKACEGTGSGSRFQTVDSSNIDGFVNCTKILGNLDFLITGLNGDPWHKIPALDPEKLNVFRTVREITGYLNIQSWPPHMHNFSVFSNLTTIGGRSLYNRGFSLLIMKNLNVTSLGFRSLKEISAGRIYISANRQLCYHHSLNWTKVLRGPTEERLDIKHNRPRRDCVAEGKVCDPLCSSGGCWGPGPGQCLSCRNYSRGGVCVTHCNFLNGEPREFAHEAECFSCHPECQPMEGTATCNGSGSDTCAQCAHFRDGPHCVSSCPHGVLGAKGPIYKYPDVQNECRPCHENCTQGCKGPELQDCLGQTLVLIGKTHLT
Description: as §1, §2

[5] = molecular target: T5, human recombinant HER2 ECD (human, UniProt P04626 23-652); assay: SPR Biacore T100, antibody captured, 25 C
T5 construct: 69.6 kDa
Description: as §1, §2

[6] = molecular target: T6, human Heregulin fragment (HRG) (human); assay: SPR Biacore T100, antibody captured, 25 C
T6 construct: also called Heregulin beta (HRG)
T6 chain: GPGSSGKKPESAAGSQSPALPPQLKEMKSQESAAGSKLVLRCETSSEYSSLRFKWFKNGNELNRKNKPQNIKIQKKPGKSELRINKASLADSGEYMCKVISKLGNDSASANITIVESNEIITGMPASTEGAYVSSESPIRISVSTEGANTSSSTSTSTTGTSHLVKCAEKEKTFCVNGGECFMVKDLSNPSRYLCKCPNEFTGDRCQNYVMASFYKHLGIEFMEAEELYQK
Description: as §1, §2

[7] = molecular target: T7, TtSlyDcys-Her3; assay: SPR Biacore T200, antibody captured, 25 C
T7 chain: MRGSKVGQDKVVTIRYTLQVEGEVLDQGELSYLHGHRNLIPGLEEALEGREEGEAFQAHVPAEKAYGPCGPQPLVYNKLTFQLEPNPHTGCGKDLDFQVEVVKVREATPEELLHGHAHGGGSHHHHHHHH
Description: (§3) A Biacore T200 instrument (GE Healthcare) was mounted with a CM5 series sensor. The sensor was normalized in HBS-ET buffer (10 mM HEPES pH 7.4, 150 mM NaCl, 3 mM EDTA, 0.05% w/v Tween 20) according to the manufacturer's instructions. The sample buffer was the system buffer supplemented with 1 mg/ml CMD (Carboxymethyldextran, Sigma #86524). The system operated at 25° C. 6500 RU RAM-Fey (relative units of Fey-fragment RamIgG, GE Healthcare) were immobilized according to the manufacturer's instructions using amine coupling EDC/NHS chemistry on all four flow cells. The sensor was deactivated using 1M ethanolamine. […] Concentration dependent kinetics were measured. […] All analytes were injected for 5 min association time and 10 min dissociation time at 100 μl/min flow rate. The sensor capture system was regenerated by a 3 min injection at 10 μl/min of 10 mM glycine pH 1.7. Where possible kinetic data was evaluated using the Biacore T200 evaluation software.

[8] = molecular target: T8, TtSlyDcas; assay: SPR Biacore T200, antibody captured, 25 C
T8 construct: control scaffold without insert; N-terminal Met may be present or not
T8 chain: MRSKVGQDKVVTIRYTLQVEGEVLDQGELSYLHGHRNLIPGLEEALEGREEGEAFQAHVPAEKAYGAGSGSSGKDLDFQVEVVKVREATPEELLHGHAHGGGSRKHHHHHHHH
Description: as §3

[9] = molecular target: T4, human recombinant HER3 ECD; assay: SPR Biacore T200, antibody captured, 25 C
Description: as §3

[10] = molecular target: T1, HER3 ECD-HRG complex; assay: SPR Biacore 3000, 37 C
[11] = molecular target: T2, HER4 ECD-HRG complex; assay: SPR Biacore 3000, 37 C
[12] = molecular target: T4, human recombinant HER3 ECD; assay: SPR Biacore 3000, 37 C

T1 sequence (P21860 20-643 limits assumed, one chain of several): as the sequence (P21860 20-643) above

B1: anti-HER3/HER4 antibody M-05-74 (antibody, V domains shown)
VH: QVQLQQSGAELAKPGASVKMSCKTSGYTLTDYWIHWVKQRPGQGLEWIGYINPYTGYTESNQKFKDKATLTADKSSNTAYIQLSSLTSEDSAVYYCARPYYYGDYWGQGTTLTVSS
VL: QIVLTQSPAIMSASPGERVTITCSASSSVSYMHWFQQKPGTSPKLLIYSTSNLASGVPARFSGSGSGTSYSLTISRMEAEDAATYYCQQRSSYPFTFGSGTKLEIK
notes: murine monoclonal antibody from hybridoma (supernatant or purified); also called M-074; M-5-74
Q: How did the “Binding Late BL” value [1] turn out when B1 was run?
A: The value was 160 RU.

Q: What about the “Molar Ratio MR” value [1] of the same binder?
A: Its value is 0.6.

Q: What about the “ratio MR (+Heregulin)/MR (-Heregulin)” value [1] of the same binder?
A: Its value is 3.

Q: And the “ratio ka (Her3-ECD-HRG)/ka (Her3-ECD)” value [1]?
A: The value was 4.85.

Q: And the “Binding Late BL” value [2]?
A: The value was 349 RU.

Q: And the “Molar Ratio MR” value [2]?
A: The value was 0.6.

Q: And the “ratio MR (+Heregulin)/MR (-Heregulin)” value [2]?
A: Its value is 6.

Q: What about the “ratio ka (Her4-ECD-HRG)/ka (Her4-ECD)” value [2] of the same binder?
A: Its value is 23.9.

Q: What about the “Binding Late BL” value [3] of the same binder?
A: Its value is 27 RU.

Q: And the “Molar Ratio MR” value [3]?
A: The value was 0.1.

Q: And the “Binding Late BL” value [4]?
A: The value was 70 RU.

Q: What about the “Molar Ratio MR” value [4] of the same binder?
A: Its value is 0.2.

Q: Does B1 bind [5]?
A: Result: no binding (tested: 90 nM)

Q: Does B1 bind [6]?
A: Result: no binding (tested: 90 nM)

Q: What about the “Molar Ratio MR” value [7] of the same binder?
A: The value was 1.9.

Q: And the “Molar Ratio MR” value [8]?
A: The value was 0.

Q: Does B1 bind [8]?
A: Result: no binding (tested: 90 nM)

Q: And the “Molar Ratio MR” value [9]?
A: The value was 0.1.

Q: What about the “Molar Ratio MR” value [10] of the same binder?
A: The value was 0.7.

Q: And the “Molar Ratio MR” value [11]?
A: Its value is 0.9.

Q: What about the “Molar Ratio MR” value [12] of the same binder?
A: Its value is 0.6.
